Measurements taken from the supplement of paper PMC9170038.

System: MS2 coat protein
Assay: apparent KD of MS2 coat protein; designed switch direction (-1 OFF switch, 1 ON switch): -1; higher = weaker reporter binding
Method in brief: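 An oligonucleotide input, 200 uM small-molecule ligand, or no input was present during titration of SNAP-549-labelled MS2 coat protein, which was doubled from 0.7 or 1.5 nM to 3 µM. Designed RNA switches had been transcribed on Illumina chips by stalled E. coli RNA polymerase. Apparent KD per design is the median over clusters of curves fitted to normalised cluster fluorescence.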

[1] = input ligand: microRNA oligo, concentration not stated
[2] = Eterna round: R95, input ligand: FMN 200 uM
[3] = Eterna round: R95, input ligand: microRNA oligo, concentration not stated
[4] = Eterna round: R95, input ligand: none

| Sequence | apparent KD of MS2 coat protein (input ligand: FMN 200 uM) [nM] | apparent KD of MS2 coat protein [1] [nM] | apparent KD of MS2 coat protein (input ligand: none) [nM] | apparent KD of MS2 coat protein [2] [nM] | apparent KD of MS2 coat protein [3] [nM] | apparent KD of MS2 coat protein [4] [nM] |
| --- | --- | --- | --- | --- | --- | --- |
| AAAAAAAAGUGAGGAUAUGGAAAUUUGGUGAUAACAUGAGGAUCACCCAUGUGAAAACAAUAAAAUUAGAAGGUAUAAAAAAAA [AK ExNG2-1] (Eterna round: R96, puzzle: Exclusion NG 2) | 122 | 73.1 | 98.8 | – | – | – |
| AAAAAACAUGAGGAUCACCCAUGUUAGGAUAUGCUAUGGAAAAUAAAAAAUAAACAUAGCAGAAGGAACAAAAA [Mat - Exclusion 1 - Eli mod - D30] (Eterna round: R96, puzzle: Exclusion 1) | – | 33.2 | – | – | – | – |
| AAAAAGCGAGGAUAUGCAUAAGGACCCGGGCGGGAAGUCGGACAUGAGGAUCACCCAUGUAGAAGGCGCAAAAA [Exclss2-V] (puzzle: Exclusion 2) | – | – | – | 25.5 | 13.2 | 14.4 |
| AAAAAGGUAGGAUAUACGAAAAAAAAGGGUAAAAUAAAUAAACAUGAGGAUCACCCAUGUAGAAGGACCAAAAA [Mat - Exclusion 2 - Tesla mod - D38] (Eterna round: R96, puzzle: Exclusion 2) | – | 22.8 | – | – | – | – |
| AAAAAGUGAGGAUAUACAUGAGGAUCACCCAUGUAAUAAAAAAAAAGGGUGGAAGAAAGUAGAAGGCACCAAAA [Ex 3 May 48] (Eterna round: R96, puzzle: Exclusion 3) | 323 | 64.5 | 65.3 | – | – | – |
| AAAACGGACCGAGGAUAUACAUGAUAUCUUUACGUAGAAGGCGGACCGGCGACUUGAGGAUCACCCAAGUGUCCUCUUUUGCGG [Mutated MS2 EX1.26] (Eterna round: R96, puzzle: Exclusion NG 1) | 184 | 51.1 | 46.7 | – | – | – |
| AAAACUCGAGUUAGGAUAUUGAGUGCUAAAAUCACCAAGAAGGAACAUGAGGAUCACCCAUGUAACGAAGGUGA [BmEX4 A.10] (Eterna round: R97, puzzle: Brourd's mod of Exclusion 4) | 19.8 | – | 16 | – | – | – |
| AAAAGGUCAGGAUAUGCGAGCGGCAGGGAGGCAGGUCGGUGGCAGAAGGGACAUGAGGAUCACCCAUGUUAAAA [Excls4-II] (puzzle: Exclusion 4) | – | – | – | – | 29.2 | – |
| AAAAUAAGUGUGAGGAUAUGCUGGUCCUUGGAUCAGCAGAAGGCACAUGAGGAUCACCCAUGUAAUAUAUUUAU [Mat - Exclusion 4 - JL Mod - D62] (puzzle: Brourd's mod of Exclusion 4) | – | – | – | – | 77.3 | – |
| AAACAAGCAACGAGAUCCCACAUGAGGAUCACCCAUGUCAACUGAAGUUUUAAAUCUUCAGGCUCGUCUUAUAACAA [S_tov1_V1.1] (Eterna round: R97, puzzle: Sensor, turn-off variant 1) | 33.6 | – | 34.8 | – | – | – |
| AAACAGCAAGGAUAUACGGGCUGUGCUUUUCAUAUCAUACAACAUGAGGAUCACCCAUGUAGAAGGUGCAACAA [Ex2 #3] (Eterna round: R97, puzzle: Exclusion 2) | 146 | – | 44 | – | – | – |
| AAACAGGAAGGAUAUACAUUAUCGGAUCUUCUGGCAAUGCCACAUGAGGAUCACCCAUGUAGAAGGUCCAAAUU [Isenona] (puzzle: Exclusion 2) | – | – | – | – | 12.7 | – |
| AAACCUGCCCAUGACCGCAAGCUUUUUGCUUGUCUCACCACAUGAGGAUCACCCAUGUGACAUGGGCUCCUUAUAAA [Orvesovera] (puzzle: Sensor v3, turn-off variant 2) | – | – | – | 13.7 | 9.96 | 12 |
| AAACUCCGGGUGAGGAUAUCUAGCAUCAAGACGCGAGAGAAGGCACUUGAGGAUCACCCAAGUACGUGGCCUAA [Quare] (Eterna round: R97, puzzle: Brourd's mod of Exclusion 4) | 153 | – | 99.9 | – | – | – |
| AAACUGAGGCAAAGCUUUAGUCGUACAUGAGGAUCACCCAUGUAGGAUAUGGUAGGCAAAGCUUACCAGAAGGACAGAGUGAUC [Mat - Exclusion NG 3 - Mod of JL - D57] (Eterna round: R96, puzzle: Exclusion NG 3) | 251 | 487 | 344 | – | – | – |
| AAAGAACAUGAGGAUCACCCAUGUUAGGAUAUAGUAGCAGUGUAUCUAAAGACAGCAGCUAGAAGGAGCAUGAG [Eternabot (Original) Solution 46] (Eterna round: R97, puzzle: Exclusion 1) | 77.4 | – | 74.3 | – | – | – |
| AAAGAAGAAGUCAGGAUAUAGUUAAAGAAGACCGACUAGAAGGGACAUGAGGAUCACCCAUGUGUCAGUGGGUA [Lasoaned] (puzzle: Brourd's mod of Exclusion 4) | – | – | – | 279 | 77.6 | 133 |
